B1: Break repair meiotic recombinase recruitment factor 1 (Homo sapiens), Q0VDD7 (parent)
chain: MTKRKKLRTSGEGLCPPKPLKNPRLGDFYGDPQSSMLGCLHHPEEPEGKLGPVPSTQQHGEEPGKAVSSSPDEETGSPCRLLRQPEKEPAPLPPSQNSFGRFVPQFAKSRKTVTRKEEMKDEDRGSGAFSLETIAESSAQSPGCQLLVETLGVPLQEATELGDPTQADSARPEQSSQSPVQAVPGSGDSQPDDPPDRGTGLSASQRASQDHLSEQGADDSKPETDRVPGDGGQKEHLPSIDSEGEKPDRGAPQEGGAQRTAGAGLPGGPQEEGDGVPCTPASAPTSGPAPGLGPASWCLEPGSVAQGSPDPQQTPSRMGREGEGTHSSLGCSSLGMVVIADLSTDPTELEERALEVAGPDGQASAISPASPRRKAADGGHRRALPGCTSLTGETTGESGEAGQDGKPPGDVLVGPTASLALAPGSGESMMGAGDSGHASPDTGPCVNQKQEPGPAQEEAELGGQNLERDLEGFRVSPQASVVLEHREIADDPLQEPGAQQGIPDTTSELAGQRDHLPHSADQGTWADSLAVELDFLLDSQIQDALDASDFEAPPEQLFPSGNKPGPCWPGPSSHANGDPVAVAKAQPRTFVGIQASEASRMEDATNVVRGLIVELSNLNRLIMGTHRDLEAFKRLNYRKTKLGGKAPLPYPSKGPGNIPRGDPPWREL
partner: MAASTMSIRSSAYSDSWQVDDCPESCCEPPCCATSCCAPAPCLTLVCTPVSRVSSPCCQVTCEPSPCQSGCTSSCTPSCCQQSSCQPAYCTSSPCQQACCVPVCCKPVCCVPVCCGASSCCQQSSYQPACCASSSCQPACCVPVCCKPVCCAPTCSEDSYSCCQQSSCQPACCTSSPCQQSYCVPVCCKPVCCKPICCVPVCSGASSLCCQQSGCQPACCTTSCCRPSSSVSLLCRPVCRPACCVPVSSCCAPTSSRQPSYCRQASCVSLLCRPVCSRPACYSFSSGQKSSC
B2: G patch domain and ankyrin repeat-containing protein 1 (Homo sapiens), O95872 (parent)
chain: MSRPLLITFTPATDPSDLWKDGQQQPQPEKPESTLDGAAARAFYEALIGDESSAPDSQRSQTEPARERKRKKRRIMKAPAAEAVAEGASGRHGQGRSLEAEDKMTHRILRAAQEGDLPELRRLLEPHEAGGAGGNINARDAFWWTPLMCAARAGQGAAVSYLLGRGAAWVGVCELSGRDAAQLAEEAGFPEVARMVRESHGETRSPENRSPTPSLQYCENCDTHFQDSNHRTSTAHLLSLSQGPQPPNLPLGVPISSPGFKLLLRGGWEPGMGLGPRGEGRANPIPTVLKRDQEGLGYRSAPQPRVTHFPAWDTRAVAGRERPPRVATLSWREERRREEKDRAWERDLRTYMNLEF
partner: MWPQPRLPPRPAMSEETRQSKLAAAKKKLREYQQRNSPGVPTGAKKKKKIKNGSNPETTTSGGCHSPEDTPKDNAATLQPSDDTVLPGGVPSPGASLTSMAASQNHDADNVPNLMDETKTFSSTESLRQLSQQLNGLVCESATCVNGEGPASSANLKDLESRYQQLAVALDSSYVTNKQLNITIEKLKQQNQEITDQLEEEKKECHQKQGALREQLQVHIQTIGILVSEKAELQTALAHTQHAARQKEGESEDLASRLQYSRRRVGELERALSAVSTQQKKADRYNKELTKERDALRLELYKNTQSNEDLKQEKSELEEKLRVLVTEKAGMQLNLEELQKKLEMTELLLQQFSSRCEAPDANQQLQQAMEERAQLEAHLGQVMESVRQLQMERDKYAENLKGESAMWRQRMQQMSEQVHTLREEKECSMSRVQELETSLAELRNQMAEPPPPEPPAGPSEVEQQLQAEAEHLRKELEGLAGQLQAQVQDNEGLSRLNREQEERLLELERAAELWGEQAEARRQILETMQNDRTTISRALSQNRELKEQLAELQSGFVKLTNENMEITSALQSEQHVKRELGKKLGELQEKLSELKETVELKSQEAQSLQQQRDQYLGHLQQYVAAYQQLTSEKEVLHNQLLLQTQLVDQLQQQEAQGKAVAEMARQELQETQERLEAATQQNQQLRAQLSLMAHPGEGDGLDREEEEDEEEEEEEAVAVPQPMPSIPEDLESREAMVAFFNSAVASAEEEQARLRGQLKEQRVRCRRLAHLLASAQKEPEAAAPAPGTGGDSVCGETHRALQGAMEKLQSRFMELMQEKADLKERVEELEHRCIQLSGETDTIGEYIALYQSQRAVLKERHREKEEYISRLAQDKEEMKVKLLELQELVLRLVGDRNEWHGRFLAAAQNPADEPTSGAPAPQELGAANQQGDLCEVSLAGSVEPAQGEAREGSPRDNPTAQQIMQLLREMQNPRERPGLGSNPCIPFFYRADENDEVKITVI
B3: DNA topoisomerase 3-beta-1 (Homo sapiens), O95985 (parent)
chain: MKTVLMVAEKPSLAQSIAKILSRGSLSSHKGLNGACSVHEYTGTFAGQPVRFKMTSVCGHVMTLDFLGKYNKWDKVDPAELFSQAPTEKKEANPKLNMVKFLQVEGRGCDYIVLWLDCDKEGENICFEVLDAVLPVMNKAHGGEKTVFRARFSSITDTDICNAMACLGEPDHNEALSVDARQELDLRIGCAFTRFQTKYFQGKYGDLDSSLISFGPCQTPTLGFCVERHDKIQSFKPETYWVLQAKVNTDKDRSLLLDWDRVRVFDREIAQMFLNMTKLEKEAQVEATSRKEKAKQRPLALNTVEMLRVASSSLGMGPQHAMQTAERLYTQGYISYPRTETTHYPENFDLKGSLRQQANHPYWADTVKRLLAEGINRPRKGHDAGDHPPITPMKSATEAELGGDAWRLYEYITRHFIATVSHDCKYLQSTISFRIGPELFTCSGKTVLSPGFTEVMPWQSVPLEESLPTCQRGDAFPVGEVKMLEKQTNPPDYLTEAELITLMEKHGIGTDASIPVHINNICQRNYVTVESGRRLKPTNLGIVLVHGYYKIDAELVLPTIRSAVEKQLNLIAQGKADYRQVLGHTLDVFKRKFHYFVDSIAGMDELMEVSFSPLAATGKPLSRCGKCHRFMKYIQAKPSRLHCSHCDETYTLPQNGTIKLYKELRCPLDDFELVLWSSGSRGKSYPLCPYCYNHPPFRDMKKGMGCNECTHPSCQHSLSMLGIGQCVECESGVLVLDPTSGPKWKVACNKCNVVAHCFENAHRVRVSADTCSVCEAALLDVDFNKAKSPLPGDETQHMGCVFCDPVFQELVELKHAASCHPMHRGGPGRRQGRGRGRARRPPGKPNPRRPKDKMSALAAYFV
partner: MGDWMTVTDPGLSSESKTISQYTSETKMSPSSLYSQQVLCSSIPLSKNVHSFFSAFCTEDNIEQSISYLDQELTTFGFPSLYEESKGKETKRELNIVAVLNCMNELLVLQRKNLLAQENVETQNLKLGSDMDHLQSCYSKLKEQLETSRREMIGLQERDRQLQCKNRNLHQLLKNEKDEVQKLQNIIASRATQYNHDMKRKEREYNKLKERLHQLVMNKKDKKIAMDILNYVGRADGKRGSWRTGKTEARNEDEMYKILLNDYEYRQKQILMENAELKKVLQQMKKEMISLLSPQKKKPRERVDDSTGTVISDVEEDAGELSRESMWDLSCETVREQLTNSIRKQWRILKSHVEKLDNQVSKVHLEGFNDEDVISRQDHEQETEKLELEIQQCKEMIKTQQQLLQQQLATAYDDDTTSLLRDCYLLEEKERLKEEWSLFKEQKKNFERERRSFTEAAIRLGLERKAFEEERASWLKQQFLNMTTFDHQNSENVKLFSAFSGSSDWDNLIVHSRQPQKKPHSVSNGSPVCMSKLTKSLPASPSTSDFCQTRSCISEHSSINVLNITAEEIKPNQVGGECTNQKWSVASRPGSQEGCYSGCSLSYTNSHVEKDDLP
B4: Septin-2 (Homo sapiens), Q15019 (parent)
chain: MSKQQPTQFINPETPGYVGFANLPNQVHRKSVKKGFEFTLMVVGESGLGKSTLINSLFLTDLYPERVIPGAAEKIERTVQIEASTVEIEERGVKLRLTVVDTPGYGDAINCRDCFKTIISYIDEQFERYLHDESGLNRRHIIDNRVHCCFYFISPFGHGLKPLDVAFMKAIHNKVNIVPVIAKADTLTLKERERLKKRILDEIEEHNIKIYHLPDAESDEDEDFKEQTRLLKASIPFSVVGSNQLIEAKGKKVRGRLYPWGVVEVENPEHNDFLKLRTMLITHMQDLQEVTQDLHYENFRSERLKRGGRKVENEDMNKDQILLEKEAELRRMQEMIARMQAQMQMQMQGGDGDGGALGHHV
partner: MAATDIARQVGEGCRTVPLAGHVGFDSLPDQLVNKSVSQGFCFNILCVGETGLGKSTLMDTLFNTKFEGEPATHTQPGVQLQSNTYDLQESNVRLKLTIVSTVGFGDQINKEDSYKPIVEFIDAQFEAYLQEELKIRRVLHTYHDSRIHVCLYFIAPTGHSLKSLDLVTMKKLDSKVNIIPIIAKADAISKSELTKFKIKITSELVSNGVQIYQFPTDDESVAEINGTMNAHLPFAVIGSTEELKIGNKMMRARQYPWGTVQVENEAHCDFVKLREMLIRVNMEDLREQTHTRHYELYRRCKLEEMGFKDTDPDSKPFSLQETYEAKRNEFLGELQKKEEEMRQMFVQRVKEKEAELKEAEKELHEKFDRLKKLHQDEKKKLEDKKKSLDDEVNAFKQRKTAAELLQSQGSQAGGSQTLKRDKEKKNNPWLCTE
B5: Macrophage scavenger receptor types I and II (Homo sapiens), P21757 (parent)
chain: MEQWDHFHNQQEDTDSCSESVKFDARSMTALLPPNPKNSPSLQEKLKSFKAALIALYLLVFAVLIPLIGIVAAQLLKWETKNCSVSSTNANDITQSLTGKGNDSEEEMRFQEVFMEHMSNMEKRIQHILDMEANLMDTEHFQNFSMTTDQRFNDILLQLSTLFSSVQGHGNAIDEISKSLISLNTTLLDLQLNIENLNGKIQENTFKQQEEISKLEERVYNVSAEIMAMKEEQVHLEQEIKGEVKVLNNITNDLRLKDWEHSQTLRNITLIQGPPGPPGEKGDRGPTGESGPRGFPGPIGPPGLKGDRGAIGFPGSRGLPGYAGRPGNSGPKGQKGEKGSGNTLTPFTKVRLVGGSGPHEGRVEILHSGQWGTICDDRWEVRVGQVVCRSLGYPGVQAVHKAAHFGQGTGPIWLNEVFCFGRESSIEECKIRQWGTRACSHSEDAGVTCTL
partner: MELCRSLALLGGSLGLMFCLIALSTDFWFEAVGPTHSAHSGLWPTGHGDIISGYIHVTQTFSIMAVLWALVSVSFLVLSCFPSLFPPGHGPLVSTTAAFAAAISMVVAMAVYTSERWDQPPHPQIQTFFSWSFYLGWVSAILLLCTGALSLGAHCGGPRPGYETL
B6: Microtubule-associated tumor suppressor candidate 2 (Homo sapiens), Q5JR59-3 (parent)
chain: MGHCCCKPYNCLQCLDKTNESALVKEKELSIELANIRDEVAFHTAKCEKLQKEKEELERRFEDEVKRLGWQQQAELQELEERLQLQFEAEMARLQEEHGDQLLSIRCQHQEQVEDLTASHDAALLEMENNHTVAITILQDDHDHKVQELMSTHELEKKELEENFEKLRLSLQDQVDTLTFQSQSLRDRARRFEEALRKNTEEQLEIALAPYQHLEEDMKSLKQVLEMKNQQIHEQEKKILELEKLAEKNIILEEKIQVLQQQNEDLKARIDQNTVVTRQLSEENANLQEYVEKETQEKKRLSRTNEELLWKLQTGDPTSPIKLSPTSPVYRGSSSGPSSPARVSTTPR
partner: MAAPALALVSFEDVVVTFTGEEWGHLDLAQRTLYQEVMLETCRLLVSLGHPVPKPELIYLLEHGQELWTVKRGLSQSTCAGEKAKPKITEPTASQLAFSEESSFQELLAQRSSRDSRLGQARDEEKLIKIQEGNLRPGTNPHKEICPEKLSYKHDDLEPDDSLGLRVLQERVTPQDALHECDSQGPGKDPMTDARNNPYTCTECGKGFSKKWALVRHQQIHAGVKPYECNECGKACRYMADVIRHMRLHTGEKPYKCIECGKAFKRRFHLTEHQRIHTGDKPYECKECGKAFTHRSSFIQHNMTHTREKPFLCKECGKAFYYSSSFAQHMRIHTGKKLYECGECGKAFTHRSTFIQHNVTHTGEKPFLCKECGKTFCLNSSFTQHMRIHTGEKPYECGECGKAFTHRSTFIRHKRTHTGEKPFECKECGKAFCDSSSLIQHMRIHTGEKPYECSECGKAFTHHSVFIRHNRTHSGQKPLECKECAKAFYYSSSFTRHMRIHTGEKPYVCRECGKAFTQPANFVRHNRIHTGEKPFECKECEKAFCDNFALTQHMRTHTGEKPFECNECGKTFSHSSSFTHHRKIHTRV
B7: Leucine rich adaptor protein 1 (Homo sapiens), Q96LR2 (parent)
chain: MEGTVESQTPDLRDVEGKVGRKTPEGLLRGLRGECELGTSGALLLPGASSTGHDLGDKIMALKMELAYLRAIDVKILQQLVTLNEGIEAVRWLLEERGTLTSHCSSLTSSQYSLTGGSPGRSRRGSWDSLPDTSTTDRLDSVSIGSFLDTVAPSELDEQGPPGAPRSEMDWAKVIAGGERARTEVDVAATRLGSLRAVWKPPGERLQGGPPESPEDESAKLGFEAHWFWEQCQDDVTFL

Data on 11 variants can be found in IntAct's records for PubMed 31515488.

Variants of B1 are the subject of one assay. To be noted: with kr109_human KRTAP10-9, P60411.
In the case of L155F, the “effect of a mutation on the interaction” value was “with no effect”. As for Q500R, the “effect of a mutation on the interaction” value was “with no effect”.

The variants in another assay derive from B2. To be noted: with goga2_human GOLGA2, Q08379.
On to R41L, for which the “effect of a mutation on the interaction” value is on record as “with no effect”.

Variants of B3 are the subject of the next assay. To be noted: with adip_human SSX2IP.
As to R267W, the “effect of a mutation on the interaction” value is given as “disrupting interaction strength”.

Variants of B4 are the subject of another assay. To be noted: with sept6_human SEPTIN6, Q14141.
In the case of H270D, the “effect of a mutation on the interaction” value is “with no effect”.

The variants in the next assay derive from B5. To be noted: with nkg7_human NKG7, Q16617.
As to P346L, the “effect of a mutation on the interaction” value was “with no effect”.

Turning to P275A, the “effect of a mutation on the interaction” value is recorded as “with no effect”. In the case of V113A, the “effect of a mutation on the interaction” value was “with no effect”.

The next assay covers variants of B6. The conditions noted are these: with zn599_human ZNF599, Q96NL3.
A89V: the “effect of a mutation on the interaction” value is recorded as “with no effect”.

A further assay covers variants of B7. To be noted: with tpm3_human TPM3, P06753.
tpm3_human TPM3, P06753, sequence (P06753 whole entry): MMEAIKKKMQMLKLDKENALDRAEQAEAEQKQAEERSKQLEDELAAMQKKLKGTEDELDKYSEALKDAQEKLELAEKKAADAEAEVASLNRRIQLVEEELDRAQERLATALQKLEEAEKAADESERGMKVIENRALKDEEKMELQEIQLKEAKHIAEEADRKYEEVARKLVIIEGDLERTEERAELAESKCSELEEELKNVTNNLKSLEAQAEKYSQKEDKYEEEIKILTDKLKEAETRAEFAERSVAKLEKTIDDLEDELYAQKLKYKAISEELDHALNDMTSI
Consider M60L, for which the “effect of a mutation on the interaction” value is “with no effect”.

Consider Q207R, for which the “effect of a mutation on the interaction” value is “with no effect”.
